Test results taken from publication PMC2680354.

Legend:
[1] = biological target: rapamycin-mediated complex of FKBP-WASP VCA-His6 and mTOR-WASP VCA-FLAG; experiment: pull-down
[2] = biological target: N-WASPC (autoinhibited C-terminal fragment of N-WASP) (UniProt O08816); experiment: ITC
[3] = biological target: N-WASPC (autoinhibited C-terminal fragment of N-WASP) (UniProt O08816)
[4] = biological target: glutathione S-transferase (GST)

Chain of N-WASPC (autoinhibited C-terminal fragment of N-WASP) (O08816 whole entry, the tested form may be a part): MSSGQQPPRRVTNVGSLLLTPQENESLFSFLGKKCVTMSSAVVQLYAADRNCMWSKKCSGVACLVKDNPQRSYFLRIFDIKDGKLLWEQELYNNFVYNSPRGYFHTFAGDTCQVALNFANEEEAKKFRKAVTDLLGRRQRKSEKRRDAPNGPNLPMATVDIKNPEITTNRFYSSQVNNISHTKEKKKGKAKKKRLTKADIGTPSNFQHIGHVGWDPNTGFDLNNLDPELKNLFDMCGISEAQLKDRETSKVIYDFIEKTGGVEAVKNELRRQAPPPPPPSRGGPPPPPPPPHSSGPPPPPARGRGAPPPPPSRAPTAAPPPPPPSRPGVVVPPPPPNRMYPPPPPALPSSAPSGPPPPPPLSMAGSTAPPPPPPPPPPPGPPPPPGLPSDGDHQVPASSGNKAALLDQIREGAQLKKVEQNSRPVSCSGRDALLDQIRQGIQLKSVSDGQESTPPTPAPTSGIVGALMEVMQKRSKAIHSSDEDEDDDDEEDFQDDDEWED
Chain of EspFu 2RC (identical repeats four and five) (P0DJ88 whole entry, the tested form may be a part): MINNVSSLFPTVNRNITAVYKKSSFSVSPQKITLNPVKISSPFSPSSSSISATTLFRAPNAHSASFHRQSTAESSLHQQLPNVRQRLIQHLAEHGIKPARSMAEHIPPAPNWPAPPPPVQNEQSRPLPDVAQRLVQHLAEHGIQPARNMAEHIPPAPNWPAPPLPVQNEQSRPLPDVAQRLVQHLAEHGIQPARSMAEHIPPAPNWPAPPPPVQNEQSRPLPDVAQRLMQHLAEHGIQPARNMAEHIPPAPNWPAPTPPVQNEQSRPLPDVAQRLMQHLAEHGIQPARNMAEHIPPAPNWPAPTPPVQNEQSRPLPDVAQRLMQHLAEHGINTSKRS
Chain of glutathione S-transferase (GST) (natural protein) (P08515 2-218): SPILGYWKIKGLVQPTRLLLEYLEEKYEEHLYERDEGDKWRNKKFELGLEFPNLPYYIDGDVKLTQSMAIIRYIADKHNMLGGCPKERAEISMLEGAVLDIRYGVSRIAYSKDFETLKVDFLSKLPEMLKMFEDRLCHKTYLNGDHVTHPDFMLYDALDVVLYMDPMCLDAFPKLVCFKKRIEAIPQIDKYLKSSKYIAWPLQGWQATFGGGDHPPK
Chain of EspFu 1R (a single repeat of EspFu, the fourth repeat) (P0DJ88 whole entry, the tested form may be a part): as the sequence (P0DJ88 whole entry, the tested form may be a part) above

Arp2/3 complex, endogenous in HEK293 cells (from UniProt P61158 1-418)
fold increase in precipitated Arp2/3 with rapamycin over no rapamycin [1]: > 3 fold

EspFu 1R (a single repeat of EspFu, the fourth repeat) (from UniProt P0DJ88 1-337) (domain or fragment)
Kd [2]: 35 nM

EspFu 2RC (identical repeats four and five) (from UniProt P0DJ88 1-337) (domain or fragment)
Kd [2]: 39 nM | fold tighter affinity than 2R [3]: 3 fold

glutathione S-transferase (GST) (natural protein)
Kd [4]: < 1 nM
